Our source for the Kd and binding signal values is paper PMC11763500.

Where “and” joins values, the source holds several entries; their conditions need not be identical. Equal entries are not always repeated.

Data set [1] has as its target SARS-CoV-2 spike (S) protein, Omicron (SARS-CoV-2 Omicron variant) (UniProt P0DTC2). As to the kind of experiment: SPR. Conditions: 5' di-DTPA (2 dithiol phosphoramidite) in printed sequence; not stated whether present in SPR analyte.
Data set [2] deals with SARS-CoV-2 spike (S) protein, beta (SARS-CoV-2 beta variant) (UniProt P0DTC2). Kind of data set: electrochemical aptasensor (DPV). Conditions: 5' di-DTPA (2 dithiol phosphoramidite groups), on gold with PEG 2000 backfill.
The target in data set [3] is SARS-CoV-2 spike (S) protein, alpha (SARS-CoV-2 alpha variant) (UniProt P0DTC2). Kind of data set: electrochemical aptasensor (DPV). Conditions: 5' di-DTPA (2 dithiol phosphoramidite groups), on gold with PEG 2000 backfill.
The target in data set [4] is SARS-CoV-2 spike (S) protein, Omicron (SARS-CoV-2 Omicron variant) (UniProt P0DTC2). As to the kind of experiment: electrochemical aptasensor (DPV). Conditions: 5' di-DTPA (2 dithiol phosphoramidite groups), on gold with PEG 2000 backfill.

Take “GGGGGCGTCAAGCGGGGTCACATCGGAGTAGGGAATCTTG [C9t (SPR)]”: in data set [1], the Kd is 14.6 nM.
Turning to “GGGGGCGTCAAGCGGGGTCACATCGGAGTAGGGAATCTTG [C9t di-DTPA (surface-immobilized)]”, the binding signal in data set [2] is 27.1 dI/I0 and 43.6 dI/I0; in data set [3], 17.9 dI/I0 and 31.9 dI/I0; in data set [4], 1240 dI/I0.
